{
  "source": "paper PMC11770034",
  "about": "“Characterization of the oxygen-tolerant formate dehydrogenase from Clostridium carboxidivorans” (Frontiers in Microbiology, 2025)",
  "tested_on": "T1, NC(=O)C1=CN([C@@H]2O[C@H](COP(=O)(O)OP(=O)(O)OC[C@H]3O[C@@H](n4cnc5c(N)ncnc54)[C@H](O)[C@@H]3O)[C@@H](O)[C@H]2O)C=CC1",
  "T1 construct": "Mo form",
  "assay": "purified protein",
  "type": "biochemical, Clostridium carboxidivorans",
  "details": "100 mM sodium bicarbonate, 50 mM Bis-Tris pH 6.8, 30 °C, oxic, Mo-loaded enzyme, part of preparation may be inactive",
  "data": [
    {"substance": "ccFDH (Mo-ccFDH) (Clostridium carboxidivorans P7; U139C)", "values": [
      {"measurement": "Km", "value": "60 ± 7", "unit": "µM"},
      {"measurement": "Vmax", "value": 5.83, "unit": "µmol/min"},
      {"measurement": "kcat", "value": "0.02 ± 0.0008", "unit": "s⁻¹"},
      {"measurement": "kcat/Km", "value": "310 ± 84", "unit": "M⁻¹ s⁻¹"}
    ]}
  ]
}
